Experimental data as given in US20230095558A1 (SPARX BIOTECH JIANGSU, published 2023).
No end group written: not given here.

B1: P29-12-peptide (targeting TIM3) (peptide)
peptide: ADFRVMADMSMY
notes: Synthetic 12-mer from phage display screening
B2: P20-12-peptide (targeting TIM3) (peptide)
peptide: LTPHKHHKHLHA
notes: as for B1
B3: K5-20-peptide (targeting TIM3) (peptide)
peptide: WQQNNPHLWDVFLGVPRTTE
notes: Synthetic 20-mer from phage display screening
B4: K2-20-peptide (targeting TIM3) (peptide)
peptide: FTYAHPVSHRWESSVHVDQW
notes: as for B3
B5: K10-20-peptide (targeting TIM3) (peptide)
peptide: SPFYYSGHQWVPHPRQAASY
notes: as for B3
B6: P24-12-peptide (targeting TIM3) (peptide)
peptide: GSWNTFRAQPTI
notes: as for B1
B7: P1303-12-peptide (targeting TIM3) (peptide)
peptide: ALWPSSSMSSTI
notes: as for B1
B8: P1301-12-peptide (targeting TIM3) (peptide)
peptide: HDAFPRPHLFRN
modifications: not fully specified
B9: K3-20-peptide (targeting TIM3) (peptide)
peptide: SQEVFAWTFSPRWTTAPKAL
notes: as for B3
B10: P1307-12-peptide (targeting TIM3) (peptide)
peptide: SHDTRSPFTWGR
notes: as for B1

molecular target: T1, TIM3 protein (cat #CHI-MF-210T3-0050, Chimerigen); experiment: SPR (OpenSPR), TIM3 protein immobilised on chip, peptide in flow
T1 construct: Bought recombinant protein used in SPR; also called TLM3 protein
Experimental: SPR assay: Affinity identification between the TIM3-targeting binding peptides and TIM3 was performed by immobilizing TIM3 protein (50 μg/mL) on the surface of a nanogold sensor chip upon activation of EDC/NHS. […] The competitive binding ability of the TIM3-targeting binding peptides to the ligand was identified by immobilizing the Galectin-9 protein (25 μg/mL) on a sensor chip at a detection concentration of 100 μg/mL for the TIM3-targeting binding peptides, and at a concentration of the mixed sample of 100 μg/mL TIM3-targeting binding peptides and 10 μg/mL TIM3 protein. The detection sample was loaded at a flow rate of 20 μL/min for about 7 min according to the instrument instructions. The KD, ka and kd values were calculated and analyzed by Trace Drawer Evaluation (version 2.0) software.

First: B1
Second: B2
The Kd of the first is 8.2-fold higher: 200 µM for the first, 24.3 µM for the second. The second binds more tightly here.

Going from B3 to B4, the Kd rises from 18 µM to 227 µM (13-fold).

Compared with B5, B6 is 270-fold lower in Kd: 26.1 µM for the first, 0.095 µM for the second.

First: B7
Second: B8
The Kd of the first is 3-fold lower: 26.3 µM for the first, 80.1 µM for the second.

First: B9
Second: B10
The Kd of the first is 5.8-fold lower: 20.1 µM for the first, 117 µM for the second.

B1 and B2 are within 1.5-fold of each other in koff: 0.00747 s⁻¹ for the first, 0.00625 s⁻¹ for the second.

Compared with B3, B4 is 1.6-fold lower in koff: 0.016 s⁻¹ for the first, 0.0103 s⁻¹ for the second.

First: B5
Second: B6
The koff of the first is 1400-fold higher: 0.023 s⁻¹ for the first, 1.69e-05 s⁻¹ for the second.

B7 and B8 are within 1.5-fold of each other in koff: 0.00308 s⁻¹ for the first, 0.00428 s⁻¹ for the second.

First: B9
Second: B10
The koff of the first is 1.7-fold higher: 0.0132 s⁻¹ for the first, 0.00789 s⁻¹ for the second.

In the case of B7, the kon is reported as 117 M⁻¹ s⁻¹.
